Reference: US20210002376A1 (UNIVERSIT T STUTTGART, published 2021)

Tests used:
[1] = target: T1, TNFR2-Fc (Enbrel) fusion protein (UniProt P20333 23-257); assay: ELISA, coated TNFR2-Fc (Enbrel), anti-human Fab-HRP
T1 construct: extracellular domain; Commercial product (Enbrel) used as coated antigen
T1 sequence (looked up): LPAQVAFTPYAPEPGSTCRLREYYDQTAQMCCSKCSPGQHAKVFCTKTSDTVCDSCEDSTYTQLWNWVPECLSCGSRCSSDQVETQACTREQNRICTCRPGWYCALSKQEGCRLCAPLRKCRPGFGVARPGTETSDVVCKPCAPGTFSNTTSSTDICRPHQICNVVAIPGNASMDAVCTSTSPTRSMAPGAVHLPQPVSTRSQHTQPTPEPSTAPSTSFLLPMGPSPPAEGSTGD

[2] = target: T2, TNFR2 (on Kym-1 cells) (UniProt P20333 23-461, limits assumed); assay: cell-based or functional assay
T2 sequence (looked up): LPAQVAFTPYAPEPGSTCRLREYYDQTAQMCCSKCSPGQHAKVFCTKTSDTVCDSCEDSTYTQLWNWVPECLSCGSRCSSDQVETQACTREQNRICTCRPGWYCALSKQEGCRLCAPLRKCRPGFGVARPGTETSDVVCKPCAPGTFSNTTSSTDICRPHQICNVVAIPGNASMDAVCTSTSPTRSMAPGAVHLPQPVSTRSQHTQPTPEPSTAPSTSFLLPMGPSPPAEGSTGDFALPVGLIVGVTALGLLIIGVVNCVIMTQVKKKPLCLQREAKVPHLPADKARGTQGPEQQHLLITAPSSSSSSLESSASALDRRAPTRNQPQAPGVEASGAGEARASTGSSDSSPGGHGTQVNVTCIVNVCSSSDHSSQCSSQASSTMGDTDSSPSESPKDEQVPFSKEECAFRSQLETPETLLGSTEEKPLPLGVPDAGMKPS

[3] = target: T3, TNFR1-Fc fusion protein (UniProt P19438 29-197); assay: ELISA, coated TNFR1-Fc, anti-human Fab-HRP
T3 construct: range 29-197; Coated antigen in ELISA; not shown: Fc part of the fusion, not described
T3 sequence (looked up): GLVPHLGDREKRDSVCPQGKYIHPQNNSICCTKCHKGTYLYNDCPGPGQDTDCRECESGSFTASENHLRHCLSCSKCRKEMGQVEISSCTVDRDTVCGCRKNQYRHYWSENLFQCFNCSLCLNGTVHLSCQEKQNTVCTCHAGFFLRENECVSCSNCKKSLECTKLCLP

- EC50 [1]: 0.7 nM
- fold increase of bioactivity against the bivalent antibody [2]: ~500 fold
- binding result [3]: no binding
B1: DbTNFR2xTNFR2-Ig (antibody, human IgG1, kappa)
heavy: QVQLQQSGAEVKKPGSAVKVSCKASGGTFSSYAISWVRQAPGQGLEWMGRIIPILGIANYAQKFQGRVTITADKSTSTAYMELSSLRSEDTAVYYCARDGLGDAFDIWGQGTMVTVSSGGGGSQSALTQPRSVSGSPGQSITISCTGTSSDVGGYNYVSWYQQHPGKAPKLMIYDVSNRPSGVSNRFSGSKSGNTASLTISGLQAEDEADYYCSSYTSSSTLVVFGGGTKLTVLASTKGPSVFPLAPSSKSTSGGTAALGCLVKDYFPEPVTVSWNSGALTSGVHTFPAVLQSSGLYSLSSVVTVPSSSLGTQTYICNVNHKPSNTKVDKKVEPKSCDKTHTCPPCPAPPVAGPSVFLFPPKPKDTLMISRTPEVTCVVVDVSHEDPEVKFNWYVDGVEVHNAKTKPREEQYNSTYRVVSVLTVLHQDWLNGKEYKCKVSNKGLPSSIEKTISKAKGQPREPQVYTLPPSRDELTKNQVSLTCLVKGFYPSDIAVEWESNGQPENNYKTTPPVLDSDGSFFLYSKLTVDKSRWQQGNVFSCSVMHEALHNHYTQKSLSLSPGK
light: QVQLQQSGAEVKKPGSAVKVSCKASGGTFSSYAISWVRQAPGQGLEWMGRIIPILGIANYAQKFQGRVTITADKSTSTAYMELSSLRSEDTAVYYCARDGLGDAFDIWGQGTMVTVSSGGGGSQSALTQPRSVSGSPGQSITISCTGTSSDVGGYNYVSWYQQHPGKAPKLMIYDVSNRPSGVSNRFSGSKSGNTASLTISGLQAEDEADYYCSSYTSSSTLVVFGGGTKLTVLRTVAAPSVFIFPPSDEQLKSGTASVVCLLNNFYPREAKVQWKVDNALQSGNSQESVTEQDSKDSTYSLSSTLTLSKADYEKHKVYACEVTHQGLSSPVTKSFNRGEC
notes: variable domains originate from IgG15
- EC50 of cell death induction, Kym-1 cells, MTT assay after 24 hours [2]: ~0.056 nM
